Literature values as cited in PMC4089558.

Biological target: CFP10 (Mycobacterium tuberculosis) (UniProt P9WNK5)
Sequence (P9WNK5 2-100): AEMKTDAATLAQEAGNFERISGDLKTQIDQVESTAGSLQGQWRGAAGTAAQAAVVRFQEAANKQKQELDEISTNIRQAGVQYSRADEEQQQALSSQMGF

ESAT-6, sequence (P9WNK7 2-95): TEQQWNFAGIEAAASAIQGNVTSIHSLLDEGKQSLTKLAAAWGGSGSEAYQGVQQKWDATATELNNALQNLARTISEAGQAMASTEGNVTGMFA

In the case of ESAT-6 (from UniProt P9WNK7), the Kd is given as 11 nM.
